# Assay results from the DeepSol protein solubility set.
# Assay: soluble on expression in E. coli; label from the status in PepcDB or PDB records
row,Sequence,soluble on expression in E. coli
1,MHHHHHHGKPIPNPLLGLDSTENLYFQGIDPFTEFMDSTDLFDVFEETPVELPTDSNGEKNADTNVGDTPDHTQDKKHGLEEEKEEHEENNSENKKIKSNKSKTEDKNKKVVVPVLADSFEQEASREVDASKGLTNSETLQVEQDGKVRLSHQVRHQVALPPNYDYTPIAEHKRVNEARTYPFTLDPFQDTAISCIDRGESVLVSAHTSAGKTVVAEYAIAQSLKNKQRVIYTSPIKALSNQKYRELLAEFGDVGLMTGDITINPDAGCLVMTTEILRSMLYRGSEVMREVAWVIFDEVHYMRDKERGVVWEETIILLPDKVRYVFLSATIPNAMEFAEWICKIHSQPCHIVYTNFRPTPLQHYLFPAHGDGIYLVVDEKSTFREENFQKAMASISNQIGDDPNSTDSRGKKGQTYKGGSAKGDAKGDIYKIVKMIWKKKYNPVIVFSFSKRDCEELALKMSKLDFNSDDEKEALTKIFNNAIALLPETDRELPQIKHILPLLRRGIGIHHSGLLPILKEVIEILFQEGFLKVLFATETFSIGLNMPAKTVVFTSVRKWDGQQFRWVSGGEYIQMSGRAGRRGLDDRGIVIMMIDEKMEPQVAKGMVKGQADRLDSAFHLGYNMILNLMRVEGISPEFMLEHSFFQFQNVISVPVMEKKLAELKKDFDGIEVEDEENVKEYHEIEQAIKGYREDVRQVVTHPANALSFLQPGRLVEISVNGKDNYGWGAVVDFAKRINKRNPSAVYTDHESYIVNVVVNTMYIDSPVNLLKPFNPTLPEGIRPAEEGEKSICAVIPITLDSIKSIGNLRLYMPKDIRASGQKETVGKSLREVNRRFPDGIPVLDPVKNMKIEDEDFLKLMKKIDVLNTKLSSNPLTNSMRLEELYGKYSRKHDLHEDMKQLKRKISESQAVIQLDDLRRRKRVLRRLGFCTPNDIIELKGRVACEISSGDELLLTELIFNGNFNELKPEQAAALLSCFAFQERCKEAPRLKPELAEPLKAMREIAAKIAKIMKDSKIEVVEKDYVESFRHELMEVVYEWCRGATFTQICKMTDVYEGSLIRMFKRLEELVKELVDVANTIGNSSLKEKMEAVLKLIHRDIVSAGSLYL,soluble
2,MGNDKRVRKPEWLKISIGANERYTETKRIVESHCLHTICSSGRCPNMGECWGKGTATFMIAGDICTRSCKFCNTQTGRPLPLDPDEPTHVAESIALMKLSHAVITSVDRDDLPDLGAAHWAQTIREIKRLNPETTTEVLIPDFQGRKELVDQVIKACPEIISHNMETVKRISPQVRSAANYHTSLEVIRQIAESGITAKSGIMVGLGETPAEVEELMDDLISVGCKILTIGQYLQPTHKHFPVAAYITPEQFAVYKETGLKKGFEQVESAPLVRSSYHAEKHIRFNNK,not soluble
3,MKLKLYLIPLLASGIILSACSSTTSQVISSLSSAQKYFEANKGELNKNNVINILKDGYNSDPNKTVNALLAGWKYTLMDQKLLENNLDPSRFKNTFGPNKNKDDVTPNISEKGLFLNETFTGLGSQIAEVFNVQKQIVSGFSYSWTSPKSFKVNIHIKMEGMINEKSKETIKSFLSNKDSNGSNSVEESEYTGDKAKFTADFIFSYTPPTGGTRSLTDKSFDVITNMINFPADVKIDVNTSHNKLNELLEKNDQVKRMKSRTFNGRNIDLLPFFYYALL,soluble
4,MRLKKLPIRRKMPMELAYIEKLFREEVGLDIKEHKDKAEQISETVVEIYEELLRKGIENANYNGRDYVSYYDLPITEDLERYMNRFIQDRGEEVLKAFVDYLAKLEEELLKAEEALPPLDEELHQKKADILGGIMLMFASVAKQINGDRKLYAESIPVTREVLRTMI,not soluble
5,MGSSHHHHHHGGTGENLYFQGGSGSRFYTAKEVREHAFHDDAYVSLNGKVLDLTPLIAAYKEMPKFAHLAKPLVQVAGTDISHWWDAEANDLRSCVDVNSGMRTYAMPLGRVPHMPTIYPDSNIDLNYDIPWWKDPQYIIGALTSRTRRIRIVNTLTGDETTLDVCAEETLEELLRERYLSINAHARSYTWVRLDPDPRELDMSRTLEDNGIHDEADSFEDLGLNADYYIPAIHLYYNDDLTEA,soluble
6,MKSGERSAVADRAQQIMSAARELLDAEGPDALSMRRIAERVGIRAPSLYKHFADKAALVAGLQAQGLTLLAEVQEAAEAEIGADPPLLVLGYAYRRHALASPHLYRITHGWPLARTALPEGLEDRAALPLARAVHGDINIARSFWAFAHGMVVLELDGRFPPGADLDVAWRTGCEAFTQAIRNRPHGSTA,not soluble
